The record followed here is US20210246218A1 (LYVGEN BIOPHARMA SUZHOU, published 2021).

One assay addresses T1, human CD137 on cells (human, UniProt Q07011 24-255).
T1 construct: whole, on cells; also called CHO-human CD137; CHO cells over-expressing human CD137
As to the kind of experiment: flow cytometry, cellular CD137; human CD137. The protocol:
CHO cells over-expressing human or cynomolgus monkey CD137 and CHO parental cells were harvested by centrifugation at 1000 g for 3 minutes. The cells were resuspended in ice cold assay buffer at 2*10\hat{ }6/mL and transferred to 96-well V-bottom plate with 100 μL/well. […] The plate was mixed and incubated in the dark for 2 hours at 4° C. The cells were washed 3 times by centrifugation at 1000 g for 3 min and resuspended in ice cold assay buffer containing goat F(ab′)₂ anti-human IgG-Fc (PE), 100 μL/well. The plate was incubated in the dark for another 1 hour at 4° C. The cells were washed 2 times by centrifugation at 1000 g for 3 min and resuspended in ice cold assay buffer containing 2% PFA. The cells were then subjected to the flow cytometer immediately.
Mean fluorescence intensity (MFI) was calculated from the total cell population in the FCM experiments. Graphpad 7.0, “[Agonist] vs. response—Variable slope (four parameters)” was used to plot the binding MFI in dose response and to calculate FCM binding EC₅₀ values.

Assay [1] deals with T2, human FcγRIIB-Ile232 on CHO-K1 cells (human, UniProt P31994 43-310).
T2 construct: whole, on cells; also called CHO-K1-huFcγRIIB-Ile232; CHO-K1-huFcγRIIB
T2 sequence (looked up): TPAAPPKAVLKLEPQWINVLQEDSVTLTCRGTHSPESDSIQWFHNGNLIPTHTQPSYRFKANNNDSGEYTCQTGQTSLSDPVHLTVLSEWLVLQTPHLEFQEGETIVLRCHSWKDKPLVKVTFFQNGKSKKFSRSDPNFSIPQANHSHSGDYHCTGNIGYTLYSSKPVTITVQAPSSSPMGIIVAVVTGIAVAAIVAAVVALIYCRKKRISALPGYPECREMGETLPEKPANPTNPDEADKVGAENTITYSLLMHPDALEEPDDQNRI
As to the kind of experiment: flow cytometry on CHO-huFcγRIIB cells, anti-human Fc F(ab')2. Here is the method:
The plate was mixed and incubated in the dark for 2 hours at 4° C.

Assay [2] concerns the target T3, recombinant human CD137 receptor protein (human, UniProt Q07011 24-186).
T3 construct: Coated on ELISA plates; also called recombinant human CD137 protein
Nature of the assay: ELISA, huCD137 coated, clone 3712 titrated; full sigmoid, plateau about 1.5. Here is the method:
(§1) For the data shown in FIGS. 16C-D, chimeric CD137 receptor protein samples were diluted in DPBS to 5 μg/mL and then coated onto an ELISA plate (Corning, Catalog number: 9018, high binding) at 50 μL (0.25 μg) per well, and incubated at 4° C. overnight. The plate was decanted and washed once; assay diluent was added at 200 μL/well. After a 1-hour incubation at room temperature, the plate was washed with PBST one time. […] The plate was incubated 1 hour at room temperature and then washed three times with PBST. Goat anti-human IgG-H+L HRP-conjugated at 1:100,000 dilution or goat anti-mouse IgG (H+L) secondary antibody, HRP, 10 at 1:50,000 dilution was added to the plate at 100 μL/well. The plate was incubated 1 hour at room temperature followed by washing with PBST four times. The TMB substrate solution was added 100 μL/well. The color was permitted to develop for 15 minutes and then 100 μL/well 2N H2SO4 was added to terminate the reaction. Absorbance at 450 nm and 620 nm was determined by a Tecan F200 Pro reader.

The next assay has as its target T4, Ly050.
T4 chain: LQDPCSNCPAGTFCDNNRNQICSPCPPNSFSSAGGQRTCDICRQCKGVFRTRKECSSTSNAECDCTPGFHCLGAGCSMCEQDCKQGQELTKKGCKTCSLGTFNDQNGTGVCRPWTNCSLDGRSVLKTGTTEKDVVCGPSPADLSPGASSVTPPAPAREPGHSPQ
Nature of the assay: ELISA, CD137 protein coated, clone 3712 titrated; full sigmoid, plateau about 1.9. Here is the method:
as §1

The next assay addresses T5, Ly110.
T5 chain: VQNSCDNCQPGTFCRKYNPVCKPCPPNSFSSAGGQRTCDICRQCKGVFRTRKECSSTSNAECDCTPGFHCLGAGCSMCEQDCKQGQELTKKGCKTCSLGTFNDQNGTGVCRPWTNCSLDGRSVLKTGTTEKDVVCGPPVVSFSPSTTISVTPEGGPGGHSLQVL
As to the kind of experiment: ELISA, clone 3712-IgG1v coated, CD137 protein titrated (EC50 is a concentration of the CD137 protein); full sigmoid, plateau about 1.9. Here is the method:
(§2) The plate was decanted and washed once; assay diluent was added 200 μL/well. After one-hour incubation at room temperature, the plate was washed with PBST one time. CD137 receptor human/mouse chimeras were diluted in assay diluent to 100 or 10 μg/mL, and then a 4-fold serial dilution in assay diluent for 11 points to final concentrations of 100000, 25000, 6250, 1562.5, 390.63, 97.66, 24.41, 6.10, 1.53, 0.38 and 0.095 ng/mL or 10000, 2500, 625, 156.25, 39.06, 9.77, 2.44, 0.61, 0.15, 0.038 and 0.0095 ng/mL. The diluted CD137 receptor was added to the assay plate, 50 μL/well, in duplicate. The plate was incubated one hour at room temperature and then washed three times with PBST. Goat anti-human IgG-H+L HRP conjugated at 1:100,000 20 dilution was added to the plate at 100 μL/well. The plate was then incubated one hour at room temperature followed by washing with PBST four times. The TMB substrate solution was added at 100 μL/well. The color was allowed to develop for 15 minutes, and was stopped with 100 μL/well 2N H2SO4. Absorbance at 450 nm and 620 nm was determined by a Tecan F200 Pro reader.

The target of a further assay is T6, Ly051.
T6 chain: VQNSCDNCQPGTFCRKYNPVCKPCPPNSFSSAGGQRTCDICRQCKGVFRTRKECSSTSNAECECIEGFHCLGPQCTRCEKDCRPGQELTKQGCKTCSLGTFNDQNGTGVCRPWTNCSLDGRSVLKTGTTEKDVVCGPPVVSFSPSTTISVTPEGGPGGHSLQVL
As to the kind of experiment: ELISA, clone 3712-IgG1v coated, CD137 protein titrated (EC50 is a concentration of the CD137 protein); curve only begins to rise: about 0.42 at 100000 ng/mL, no plateau, fit marked ~. Here is the method:
as §2

T1 sequence (Q07011 24-255): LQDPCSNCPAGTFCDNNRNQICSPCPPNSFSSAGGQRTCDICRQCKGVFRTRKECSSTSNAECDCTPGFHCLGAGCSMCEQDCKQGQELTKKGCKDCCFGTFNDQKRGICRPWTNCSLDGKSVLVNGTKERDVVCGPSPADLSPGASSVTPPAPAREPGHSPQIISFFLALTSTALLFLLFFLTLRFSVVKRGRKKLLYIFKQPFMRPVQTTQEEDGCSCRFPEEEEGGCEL

B1: Clone 3712-IgG1v (IgG1v/kappa) (antibody)
heavy: QVQLVQSGAEVKKPGASVKVSCKASGYTFAGFEMHWVRQAPGQGLEWMGAIDPKTGGTDYNQKFKDRVTMTRDTSISTAYMELSRLRSDDTAVYYCARDLGYFDVWGQGTLVTVSSASTKGPSVFPLAPSSKSTSGGTAALGCLVKDYFPEPVTVSWNSGALTSGVHTFPAVLQSSGLYSLSSVVTVPSSSLGTQTYICNVNHKPSNTKVDKKVEPKSCDKTHTCPPCPAPELLGPSVFLFPPKPKDTLMISRTPEVTCVVVDVEHEDPEVKFNWYVDGVEVHNAKTKPREEQYNSTYRVVSVLTVLHQDWLNGKEYKCKVSNKALPAPIEKTISKAKGQPREPQVYTLPPSREEMTKNQVSLTCLVKGFYPSDIAVEWESNGQPENNYKTTPPVLDSDGSFFLYSKLTVDKSRWQQGNVFSCSVMHEALHNHYTQKSLSLSPGK
light: DIQMTQSPSSLSASVGDRVTITCRASQDIRSNLNWYQQKPGGAVKLLIYYTSRLHSGVPSRFSGSGSGTDYTLTISSLQPEDFATYFCQQSEKLPRTFGGGTKVEIRRTVAAPSVFIFPPSDEQLKSGTASVVCLLNNFYPREAKVQWKVDNALQSGNSQESVTEQDSKDSTYSLSSTLTLSKADYEKHKVYACEVTHQGLSSPVTKSFNRGEC
notes: copies: 2 + 2
Turning to B1, the EC50 was approximately 0.3 nM with human CD137 on cells; 0.0572 µg/mL in assay [2]; 0.0722 µg/mL with Ly050; 0.101 µg/mL with Ly110; approximately 466 µg/mL with Ly051. Also, the binding result in assay [1] was “binds”.
